From patent US6599718B1, “Growth hormone secretagogue related receptors and nucleic acids” (priority 1998, dated 2003)
Each block holds one molecule with its values, some of them ahead of it. Ends that are not written are not given here.

Key:
[1] = biological target: human growth hormone secretagogue related receptor (GHSR-R) (human) (UniProt Q9HB89); assay: cell-based or functional assay
[2] = system: other G-protein coupled receptors; assay: Aequorin assay, cells transfected with other G-protein coupled receptors in the same vector; format: cell-based; settings: other GPCRs cloned into the same vector
GHSR-R = biological target: T1, GHSR-R (Homo sapiens, UniProt Q9HB89); assay: β-lactamase assay in CHO-NFAT-bla cells stably expressing GHSR-R; format: cell-based; settings: triplicates, read-out: EC50 of NMU for GHSR-R
T1 construct: expressed in transfected cells
T1 sequence (Q9HB89 24-426 limits assumed): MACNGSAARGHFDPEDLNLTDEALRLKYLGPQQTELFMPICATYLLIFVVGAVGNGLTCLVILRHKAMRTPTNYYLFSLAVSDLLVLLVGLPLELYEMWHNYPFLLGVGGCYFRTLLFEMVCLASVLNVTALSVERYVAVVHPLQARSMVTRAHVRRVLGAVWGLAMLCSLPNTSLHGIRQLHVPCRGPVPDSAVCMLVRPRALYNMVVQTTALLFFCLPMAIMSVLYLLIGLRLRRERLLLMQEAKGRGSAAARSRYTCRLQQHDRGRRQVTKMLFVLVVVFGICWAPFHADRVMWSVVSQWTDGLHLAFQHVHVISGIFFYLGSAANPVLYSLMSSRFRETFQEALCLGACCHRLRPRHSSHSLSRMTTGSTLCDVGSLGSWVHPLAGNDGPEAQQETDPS
Method: β-lactamase assays were carried out as described previously; Zlokarnik et al., 1998, Science 279:84-88. CH.3xNFAT-bla cells (Aurora Biosciences, San Diego, Calif., USA) stably expressing GHSR-R were maintained at 37° C./5% CO2 in DMEM+10% fetal bovine serum (GIBCO-BRL, Gaithersburg, Md., USA), 1 mM sodium pyruvate, 1 mM non-essential amino acid, 55 μM 2-mecaptoethanol, 250 μg/ml zeocin, 5.0 μg/ml puromycin. Cells were seeded at 7,000 cells/well in 96-well clear bottom black-walled plates two days before assay.
The day the assay was performed, growth media was removed from the cells and replaced with 0.05 mL/well of phenol red-free Opti-MEM (GIBCO-BRL, Gaithersburg, Md., USA). Neuromedin U was diluted in Opti-MEM using 5-fold serial dilutions, and added into assay plates in triplicates at 0.05 ml/well. The plates were incubated at 37° C./5% CO2 for 4 hours. […]
Fluorescence was measured at emission wave length of 460 nM and 535 nM using an excitation wave length of 405 nM in a Tecan SpectraFluor Plus fluorescence microplate reader (Tecan Austria, Saltzburg, Austria). The ratio of fluorescence between 460 nM and 535 nM was calculated and plotted using the software GraphPad Prism Version 3.0 (GraphPad Software, Inc., San Diego, Calif., USA).

[3] = system: Male rats (Charles River Sprague Dawley); assay: Overnight food intake after ICV (lateral ventricle) injection in rats; format: in vivo, rat; settings: 10 μg ICV, relative to aCSF vehicle, P<0.01, n=6
Method: Animals and Diet: Male rats (Charles River Sprague Dawley) weighing 250-350 g were maintained in a temperature and humidity controlled facility with a 12 hour light/dark cycle (4:00 AM lights on). Rats were fed standard rodent ground chow (Purina#7012). Fresh diet was provided daily. Both food and water were supplied ad libitum throughout both the pre- and post-surgery periods.
ICV cannulation: Rats under ketamine/xylazine anesthesia, were stereotaxically implanted in the lateral ventricle with a 26G guide cannula. The guide cannula (Plastics One Roanoke,Va.) was secured with three set screws and dental cement. A dummy internal cannula was placed into the guide cannula to maintain cannula patency. Rats were individually housed in Nalgene metabolism cages and allowed to recover a minimum of seven days before injection with test compounds.
Acclimation: Beginning the day after surgery, each rat was acclimated to the handling and injection procedure, as well as, the feeding regimen. […] Food intake was measured two hours later and the following morning. […]
Confirmation of cannula placement: Once the rats were fully recovered from surgery, guide cannula placement was confirmed by evaluating the food intake induced by the injection of 5 μg of hNPY (Peninsula Laboratories, Belmont, Calif.) after a one hour satiation period. Two hour post-injection food intake was recorded for each rat. […]

[4] = biological target: T2, human growth hormone secretagogue related receptor (GHSR-R) (human, UniProt Q9HB89 24-426); assay: cell-based or functional assay
T2 sequence: T1 sequence (Q9HB89 24-426 limits assumed)

[5] = biological target: T2, human growth hormone secretagogue …; assay: radioligand competition on membranes of HEK293 cells stably expressing human GHSR-R (summary of Example 10)
Method: (§1) All procedures were conducted on ice. Cell pellets were homogenized in a tissue grinder with a PTFE pestle (25 strokes). Crude cell membranes were then isolated by centrifugation of the cell lysate at 13,000×g for 30 minutes. Membrane pellets were resuspended at a protein concentration of 2.8 mg/ml in 50 mM Tris-HCl, pH 7.4, 5 mM MgCl2.
(§2) After incubation for 1 hour at room temperature, binding reactions were filtered through GC/C filters (Whatman; presoaked for 1 hour in 1% polyethylenimine) on a 48-well cell harvester (Brandel), washed 3×3 ml with ice-cold 50 mM Tris-HCl, pH 7.4 buffer with 10 mM MgCl2. Radioactivity on the filters was quantitated by gamma counting.

[6] = biological target: T2, human growth hormone secretagogue …; assay: radioligand competition against 0.1 nM 125I-labeled rat NMU on membranes of HEK-293/aeq17 cells stably expressing human GHSR-R, filtration
Method: as §1, §2

Molecule: neuromedin U (NMU), species and length not stated (peptide)
EC50, beta-lactamase reporter assay in CHO-NFAT-bla cells [1]: 0.075 nM
EC50, beta-lactamase reporter assay in HEK293CRE-bla cells [1]: 3 nM

Molecule: neuromedin U (YKVNEYQGPVAPSGGFFLFRPRN; ends and bridges not checked; UniProt P12760 144-166, looked up) [NMU, neuropeptide neuromedin U; rat peptide (Phoenix Pharmaceuticals) in the food intake study]
response to NMU in cells expressing other G-protein coupled receptors [2]: did not show any response
EC50 (GHSR-R): ~0.075 nM
suppression of food intake [3]: 59%

Further lines, results first:

EC50, FLIPR intracellular Ca2+ assay, COS-7 cells transiently transfected with GHSR-R [1]: 45 nM
EC50, aequorin bioluminescence assay (Ca2+ mobilization), HEK293aeq/17 cells stably expressing GHSR-R [1]: 2.1 nM
Molecule: porcine neuromedin U-8 (porcine NMU-8) (from UniProt P34964 158-165) (peptide)

EC50, FLIPR intracellular Ca2+ assay, COS-7 cells transiently transfected with GHSR-R [4]: 55 nM
EC50, aequorin bioluminescence assay (Ca2+ mobilization), HEK293aeq/17 cells stably expressing GHSR-R [4]: 14.1 nM
IC50 [5]: 3 nM
IC50 [6]: 3.3 nM
B1: rat neuromedin U-23 (rat NMU-23) (peptide, UniProt P12760 144-166, looked up)
peptide: YKVNEYQGPVAPSGGFFLFRPRN-NH2
notes: mature; also called unlabeled rat neuromedin U-25; Neuromedin U-25 (rat)
